Entries after “also recorded” stand apart in the source; their conditions may differ.
Columns and labels:
C. difficile = assay: Mouse model for parenteral ampicillin-induced disruption of colonization resistance against C. difficile; format: in vivo, C57BL/6 mice; conditions: single daily dose, 200 mg/kg intraperitoneal, 3 days, 5×10^3 spores 24 hours after last dose
Experimental: FIGS. 7A-7C. Mouse model for parenteral ampicillin-induced dysbiosis and the disruption of colonization resistance against C. difficile. FIG. 7A. A 3-day intraperitoneal ampicillin administration regimen is evaluated for its effects in abolishing colonization resistance against 5×10^3 spores of C. difficile at 24 hours after the last ampicillin dose. C. difficile density in feces is evaluated 24 hours after the infection. FIG. 7B. […] FIG. 7C. Dose-dependency of single daily intraperitoneal ampicillin injections in the disruption of colonization resistance against C. difficile.
L. lactis spTEM1 protects the diversity and composition of gut the microbiota in an ampicillin-induced dysbiosis murine model. To test the efficacy of L. lactis spTEM1 in preventing ampicillin-induced dysbiosis, a mouse model was developed that utilizes susceptibility to C. difficile infection as an endpoint indication of gut dysbiosis. […] Based on this antibiotic regimen, the inventors devised a probiotic intervention aimed at populating the mouse gut with L. lactis spTEM1 while ampicillin circulates in the body (FIG. 3A). […]
C. difficile infection. […] The number of colony forming units (CFU) was counted using TCCFA plates supplemented with 50 μg/mL Erythromycin at 37° C. under anaerobic conditions, as previously reported.^26

[1] = biological target: T1, β lactamase fragment (BLF) 2 of TEM1 β-lactamase, without SpyCatcher
T1 chain: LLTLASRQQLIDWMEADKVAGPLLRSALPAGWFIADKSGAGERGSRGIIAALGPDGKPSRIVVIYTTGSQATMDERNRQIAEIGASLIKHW

[2] = Nitrocefin hydrolysis assay for β-lactamase activity in culture supernatants; format: biochemical; conditions: 0.1 mM nitrocefin, absorbance at 486 nm
Description: A L. lactis strain was generated that is able to inactivate β-lactam antibiotics in its surroundings by secreting a split enzyme that is encoded in a two-gene biosynthesis pathway. By splitting β-lactam degradation into a genetically unlinked trait the selective advantage conferred upon a single locus was removed, thereby limiting the possible spread of the engineered trait in the population through a single HGT event. To achieve this, a heterodimeric version of the TEM1 β-lactamase (spTEM1) that regains its activity when reconstituted in the extracellular environment was generated.
β-lactamase assay. Nitrocefin (BioVision) was dissolved in DMSO to make a 1 mM stock. It was added to samples bacterial culture supernatant in a clear-bottom 96-well plate to a final concentration of 0.1 mM. The plate was placed in a spectrophotometer SpectraMaX™ M5 (Molecular Devices) to read absorbance at 486 nm over time.

E. coli = assay: Cell density-dependent survival/growth on ampicillin, E. coli expressing spTEM1 elements; format: cell-based, Escherichia coli
Description: FIGS. 2A-2B. […] FIG. 2A. Cell density-dependent growth on ampicillin. β-lactamases in the periplasm of Gram-negative bacteria i.e. E. coli, confer selective advantage to single-cells. Survival to ampicillin is an emergent property of the of the L. lactis spTEM1 population and not of single cells. Diffusion from the cell surface precludes protection to the producer cell when the population density is low. FIG. 2B. Estimation of the ampicillin survival density threshold in prototypical Gram-negative and Gram-positive strains expressing elements of the spTEM1 system.
The spTEM1 β-lactamase system is not amenable to HGT. Stable acquisition of a new genetic trait by HGT requires both the physical mobilization of DNA into the recipient cell and that the expression of the newly obtained genetic material provides enough selective advantage to outcompete the rest of the population. While encoding the spTEM1 β-lactamase system in separate genetic loci reduces the likelihood of transfer to a single recipient cell, the scenario of simultaneous acquisition of the two β-lactamase fragments cannot be completely ruled out. The inventors investigated whether stable acquisition of the spTEM1 β-lactamase genes to a Gram-negative bacterium confers a fitness advantage in the presence of ampicillin.
Bacterial strains. […]

CC1(C)S[C@@H]2[C@H](NC(=O)[C@H](N)c3ccccc3)C(=O)N2[C@H]1C(=O)O [ampicillin]
disruption of colonization resistance against C. difficile (C. difficile): sufficient to abrogate colonization resistance; also recorded: enough to sensitize the mouse gut to robust C. difficile colonization

B1: β lactamase fragment (BLF) 1 of TEM1 β-lactamase, without SpyTag (protein)
chain: MHPETLVKVKDAEDQLGARVGYIELDLNSGKILESFRPEERFPMMSTFKVLLCGAVLSRIDAGQEQLGRRIHYSQNDLVEYSPVTEKHLTDGMTVRELCSAAITMSDNTAANLLLTTIGGPKELTAFLHNMGDHVTRLDRWEPELNEAIPNDERDTTTPVAMATTLRKLLTG
β-lactamase activity in culture supernatants (nitrocefin) [1]: slow in reconstituting and show minimal β-lactamase activity

B2: ST-BLF-1: SpyTag fused to TEM1 β-lactamase fragment BLF1 with usp45 secretion signal (SEQ ID NO: 4) (protein)
chain: MKKKIISAILMSTVILSAAAPLSGVYAAHIVMVDAYKPTKGGGGSGGGGSMHPETLVKVKDAEDQLGARVGYIELDLNSGKILESFRPEERFPMMSTFKVLLCGAVLSRIDAGQEQLGRRIHYSQNDLVEYSPVTEKHLTDGMTVRELCSAAITMSDNTAANLLLTTIGGPKELTAFLHNMGDHVTRLDRWEPELNEAIPNDERDTTTPVAMATTLRKLLTG
β-lactamase activity (nitrocefin hydrolysis) [2]: do not display β-lactamase activity

B3: TEM1 β-lactamase: Intact TEM1 β-lactamase with periplasmic localization in E. coli (protein, UniProt P62593 24-286, looked up)
Beta-lactamase TEM: HPETLVKVKDAEDQLGARVGYIELDLNSGKILESFRPEERFPMMSTFKVLLCGAVLSRVDAGQEQLGRRIHYSQNDLVEYSPVTEKHLTDGMTVRELCSAAITMSDNTAANLLLTTIGGPKELTAFLHNMGDHVTRLDRWEPELNEAIPNDERDTTMPAAMATTLRKLLTGELLTLASRQQLIDWMEADKVAGPLLRSALPAGWFIADKSGAGERGSRGIIAALGPDGKPSRIVVIYTTGSQATMDERNRQIAEIGASLIKHW
growth in ampicillin as single colonies (E. coli): enables the growth in ampicillin as single colonies

— US20240024383A1, “ENGINEERED PROBIOTIC COMPOSITIONS AND USES THEREOF” (priority 2020, published 2024)
